Laboratory results as given in IntAct's records for PubMed 25042851.

Biological target: mlp3a_human MAP1LC3A (UniProt Q9H492)

effect of a mutation on the interaction | Substance
decreasing interaction strength | Toll-interacting protein (Homo sapiens) (from UniProt Q9H0E2) W133A;T134A;H135A;I136A
disrupting interaction strength | Toll-interacting protein (Homo sapiens) (from UniProt Q9H0E2) W133A;T134A;H135A;I136A;W151A;Y152A;S153A;L154A
decreasing interaction strength | Toll-interacting protein (Homo sapiens) (from UniProt Q9H0E2) W151A;Y152A;S153A;L154A
